Reference: publication doi:10.1101/2020.10.02.323899

Legend:
[1] = molecular target: Xenopus cyclase-associated protein 1 (Xenopus laevis (endogenous in oocytes)); assay: SEC-MALS + AUC
[2] = molecular target: actin from Xenopus laevis oocytes (Xenopus laevis (endogenous in oocytes)) (UniProt O93400); assay: SEC-MALS + AUC

Substance “Xenopus cyclase-associated protein 1 (natural protein)” has a stoichiometry N (XCAP1 molecules in the complex) [1] of 4 and a stoichiometry N (XCAP1 per actin (4:4)) [2] of 1.
